Our source for the drop of the CLP/Fn intensity ratio from low to high Fn fibre strain values is paper PMC4539566.

The target in the test is fibronectin (Fn) isolated from human plasma, as manually pulled single Fn fibres (human) (UniProt P02751). Kind of test: fluorescence microscopy of a labelled peptide on single Fn fibres (fibre stretch assay); Fn fibres (10% Fn-Alexa647) held across PDMS trenches in a uniaxial strain device, relaxed or stretched (40%, 140%, 380% absolute strain); blocked with 4% BSA 30 min; incubated with CLP-Alexa488 30 min, rinsed and imaged in PBS; CLP-Alexa488/Fn-Alexa647 intensity ratio normalised to the 140% strain point.
Sequence of UniProt P02751 (P02751 32-2477): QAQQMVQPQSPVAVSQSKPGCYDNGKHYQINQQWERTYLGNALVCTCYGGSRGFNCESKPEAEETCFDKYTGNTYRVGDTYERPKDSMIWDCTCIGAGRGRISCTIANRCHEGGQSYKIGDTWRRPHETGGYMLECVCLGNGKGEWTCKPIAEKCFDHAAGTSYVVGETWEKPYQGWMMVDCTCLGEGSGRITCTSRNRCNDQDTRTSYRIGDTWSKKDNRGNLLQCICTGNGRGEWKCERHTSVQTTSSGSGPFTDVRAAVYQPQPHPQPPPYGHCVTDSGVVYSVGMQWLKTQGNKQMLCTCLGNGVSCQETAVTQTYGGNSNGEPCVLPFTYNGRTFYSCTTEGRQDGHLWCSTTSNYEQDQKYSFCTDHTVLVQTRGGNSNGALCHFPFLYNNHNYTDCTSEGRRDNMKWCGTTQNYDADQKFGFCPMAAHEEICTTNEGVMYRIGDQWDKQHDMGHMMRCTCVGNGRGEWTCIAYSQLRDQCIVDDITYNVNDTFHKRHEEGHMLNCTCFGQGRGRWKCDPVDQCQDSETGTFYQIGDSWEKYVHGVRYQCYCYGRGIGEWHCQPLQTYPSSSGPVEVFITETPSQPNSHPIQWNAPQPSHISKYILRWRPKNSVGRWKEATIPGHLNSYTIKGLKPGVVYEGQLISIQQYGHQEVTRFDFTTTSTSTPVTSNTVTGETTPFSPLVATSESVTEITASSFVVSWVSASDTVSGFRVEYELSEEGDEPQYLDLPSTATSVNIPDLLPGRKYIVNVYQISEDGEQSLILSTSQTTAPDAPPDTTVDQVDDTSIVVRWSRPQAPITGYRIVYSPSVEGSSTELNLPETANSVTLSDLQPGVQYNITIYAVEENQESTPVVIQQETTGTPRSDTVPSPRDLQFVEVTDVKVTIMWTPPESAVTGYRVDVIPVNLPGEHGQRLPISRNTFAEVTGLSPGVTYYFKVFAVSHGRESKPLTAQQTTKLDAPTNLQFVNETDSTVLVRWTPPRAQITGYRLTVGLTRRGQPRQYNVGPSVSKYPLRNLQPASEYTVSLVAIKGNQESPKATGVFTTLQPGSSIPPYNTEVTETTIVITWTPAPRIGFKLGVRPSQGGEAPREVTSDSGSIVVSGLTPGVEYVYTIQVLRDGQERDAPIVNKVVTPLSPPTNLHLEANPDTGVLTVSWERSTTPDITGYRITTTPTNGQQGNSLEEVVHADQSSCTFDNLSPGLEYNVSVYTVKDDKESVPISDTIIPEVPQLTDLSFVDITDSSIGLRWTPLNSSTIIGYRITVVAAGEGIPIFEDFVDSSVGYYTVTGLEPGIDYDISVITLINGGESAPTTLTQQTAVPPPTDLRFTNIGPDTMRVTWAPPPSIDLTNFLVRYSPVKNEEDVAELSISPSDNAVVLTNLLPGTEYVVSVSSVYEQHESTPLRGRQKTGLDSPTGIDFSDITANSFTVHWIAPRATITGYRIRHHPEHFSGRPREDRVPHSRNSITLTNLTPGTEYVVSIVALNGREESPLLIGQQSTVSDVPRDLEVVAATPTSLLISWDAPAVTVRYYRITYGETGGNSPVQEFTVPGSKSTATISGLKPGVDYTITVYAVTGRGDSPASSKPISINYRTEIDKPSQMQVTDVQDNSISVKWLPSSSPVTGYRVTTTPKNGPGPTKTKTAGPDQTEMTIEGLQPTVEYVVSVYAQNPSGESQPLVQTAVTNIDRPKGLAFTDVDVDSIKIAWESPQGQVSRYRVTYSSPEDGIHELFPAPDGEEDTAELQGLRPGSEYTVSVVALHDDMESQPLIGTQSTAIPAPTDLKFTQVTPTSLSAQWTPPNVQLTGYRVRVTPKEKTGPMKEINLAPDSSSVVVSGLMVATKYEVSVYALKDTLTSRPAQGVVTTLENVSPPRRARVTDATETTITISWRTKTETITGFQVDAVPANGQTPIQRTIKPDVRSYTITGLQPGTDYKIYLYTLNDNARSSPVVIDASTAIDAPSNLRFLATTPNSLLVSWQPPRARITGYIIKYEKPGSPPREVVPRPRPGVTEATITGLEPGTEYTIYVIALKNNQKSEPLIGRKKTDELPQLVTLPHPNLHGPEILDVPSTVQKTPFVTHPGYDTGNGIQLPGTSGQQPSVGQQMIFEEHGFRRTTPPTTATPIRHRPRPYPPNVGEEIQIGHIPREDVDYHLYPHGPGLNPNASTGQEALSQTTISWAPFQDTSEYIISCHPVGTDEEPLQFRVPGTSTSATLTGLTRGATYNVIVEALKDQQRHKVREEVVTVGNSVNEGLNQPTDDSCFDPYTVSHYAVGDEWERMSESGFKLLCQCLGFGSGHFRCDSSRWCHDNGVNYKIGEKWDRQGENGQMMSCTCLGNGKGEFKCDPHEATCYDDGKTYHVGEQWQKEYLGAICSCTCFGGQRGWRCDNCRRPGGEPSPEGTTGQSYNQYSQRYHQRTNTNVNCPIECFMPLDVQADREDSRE

Regarding “synthetic collagen peptide (CLP) derived from the Fn-binding region of the α1 chain of type I collagen (residues Q778-G799), with a terminal cysteine”, the drop of the CLP/Fn intensity ratio from low to high Fn fibre strain amounted to 52%.
